Results published in article PMC4210636 (Chemistry & Biology, 2014).

Columns and labels:
[1] = target: LRP-1 ectodomain (low-density lipoprotein receptor-related protein 1) (UniProt Q07954 20-4419); experiment: ELISA
[2] = target: T1, ADAMTS-5 lacking the C-terminal thrombospondin domain (UniProt Q9UNA0 262-874); experiment: steady-state enzyme inhibition kinetics
T1 sequence (looked up): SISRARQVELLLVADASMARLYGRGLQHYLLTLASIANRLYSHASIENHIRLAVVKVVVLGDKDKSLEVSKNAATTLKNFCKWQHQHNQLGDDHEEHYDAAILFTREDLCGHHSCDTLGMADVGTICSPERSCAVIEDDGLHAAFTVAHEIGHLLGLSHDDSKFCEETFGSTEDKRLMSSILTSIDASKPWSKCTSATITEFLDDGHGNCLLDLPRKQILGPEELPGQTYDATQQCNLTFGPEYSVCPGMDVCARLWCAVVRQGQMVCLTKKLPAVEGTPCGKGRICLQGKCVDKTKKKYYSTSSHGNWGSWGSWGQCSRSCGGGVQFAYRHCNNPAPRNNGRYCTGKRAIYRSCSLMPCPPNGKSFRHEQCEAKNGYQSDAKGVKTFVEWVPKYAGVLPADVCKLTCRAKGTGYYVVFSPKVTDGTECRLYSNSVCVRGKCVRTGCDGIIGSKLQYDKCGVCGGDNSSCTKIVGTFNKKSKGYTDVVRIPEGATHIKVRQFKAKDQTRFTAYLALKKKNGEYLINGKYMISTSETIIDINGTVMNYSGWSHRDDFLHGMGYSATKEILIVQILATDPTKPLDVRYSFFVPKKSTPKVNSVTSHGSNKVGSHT

Chain of LRP-1 ectodomain (low-density lipoprotein receptor-related protein 1) (Q07954 20-4419): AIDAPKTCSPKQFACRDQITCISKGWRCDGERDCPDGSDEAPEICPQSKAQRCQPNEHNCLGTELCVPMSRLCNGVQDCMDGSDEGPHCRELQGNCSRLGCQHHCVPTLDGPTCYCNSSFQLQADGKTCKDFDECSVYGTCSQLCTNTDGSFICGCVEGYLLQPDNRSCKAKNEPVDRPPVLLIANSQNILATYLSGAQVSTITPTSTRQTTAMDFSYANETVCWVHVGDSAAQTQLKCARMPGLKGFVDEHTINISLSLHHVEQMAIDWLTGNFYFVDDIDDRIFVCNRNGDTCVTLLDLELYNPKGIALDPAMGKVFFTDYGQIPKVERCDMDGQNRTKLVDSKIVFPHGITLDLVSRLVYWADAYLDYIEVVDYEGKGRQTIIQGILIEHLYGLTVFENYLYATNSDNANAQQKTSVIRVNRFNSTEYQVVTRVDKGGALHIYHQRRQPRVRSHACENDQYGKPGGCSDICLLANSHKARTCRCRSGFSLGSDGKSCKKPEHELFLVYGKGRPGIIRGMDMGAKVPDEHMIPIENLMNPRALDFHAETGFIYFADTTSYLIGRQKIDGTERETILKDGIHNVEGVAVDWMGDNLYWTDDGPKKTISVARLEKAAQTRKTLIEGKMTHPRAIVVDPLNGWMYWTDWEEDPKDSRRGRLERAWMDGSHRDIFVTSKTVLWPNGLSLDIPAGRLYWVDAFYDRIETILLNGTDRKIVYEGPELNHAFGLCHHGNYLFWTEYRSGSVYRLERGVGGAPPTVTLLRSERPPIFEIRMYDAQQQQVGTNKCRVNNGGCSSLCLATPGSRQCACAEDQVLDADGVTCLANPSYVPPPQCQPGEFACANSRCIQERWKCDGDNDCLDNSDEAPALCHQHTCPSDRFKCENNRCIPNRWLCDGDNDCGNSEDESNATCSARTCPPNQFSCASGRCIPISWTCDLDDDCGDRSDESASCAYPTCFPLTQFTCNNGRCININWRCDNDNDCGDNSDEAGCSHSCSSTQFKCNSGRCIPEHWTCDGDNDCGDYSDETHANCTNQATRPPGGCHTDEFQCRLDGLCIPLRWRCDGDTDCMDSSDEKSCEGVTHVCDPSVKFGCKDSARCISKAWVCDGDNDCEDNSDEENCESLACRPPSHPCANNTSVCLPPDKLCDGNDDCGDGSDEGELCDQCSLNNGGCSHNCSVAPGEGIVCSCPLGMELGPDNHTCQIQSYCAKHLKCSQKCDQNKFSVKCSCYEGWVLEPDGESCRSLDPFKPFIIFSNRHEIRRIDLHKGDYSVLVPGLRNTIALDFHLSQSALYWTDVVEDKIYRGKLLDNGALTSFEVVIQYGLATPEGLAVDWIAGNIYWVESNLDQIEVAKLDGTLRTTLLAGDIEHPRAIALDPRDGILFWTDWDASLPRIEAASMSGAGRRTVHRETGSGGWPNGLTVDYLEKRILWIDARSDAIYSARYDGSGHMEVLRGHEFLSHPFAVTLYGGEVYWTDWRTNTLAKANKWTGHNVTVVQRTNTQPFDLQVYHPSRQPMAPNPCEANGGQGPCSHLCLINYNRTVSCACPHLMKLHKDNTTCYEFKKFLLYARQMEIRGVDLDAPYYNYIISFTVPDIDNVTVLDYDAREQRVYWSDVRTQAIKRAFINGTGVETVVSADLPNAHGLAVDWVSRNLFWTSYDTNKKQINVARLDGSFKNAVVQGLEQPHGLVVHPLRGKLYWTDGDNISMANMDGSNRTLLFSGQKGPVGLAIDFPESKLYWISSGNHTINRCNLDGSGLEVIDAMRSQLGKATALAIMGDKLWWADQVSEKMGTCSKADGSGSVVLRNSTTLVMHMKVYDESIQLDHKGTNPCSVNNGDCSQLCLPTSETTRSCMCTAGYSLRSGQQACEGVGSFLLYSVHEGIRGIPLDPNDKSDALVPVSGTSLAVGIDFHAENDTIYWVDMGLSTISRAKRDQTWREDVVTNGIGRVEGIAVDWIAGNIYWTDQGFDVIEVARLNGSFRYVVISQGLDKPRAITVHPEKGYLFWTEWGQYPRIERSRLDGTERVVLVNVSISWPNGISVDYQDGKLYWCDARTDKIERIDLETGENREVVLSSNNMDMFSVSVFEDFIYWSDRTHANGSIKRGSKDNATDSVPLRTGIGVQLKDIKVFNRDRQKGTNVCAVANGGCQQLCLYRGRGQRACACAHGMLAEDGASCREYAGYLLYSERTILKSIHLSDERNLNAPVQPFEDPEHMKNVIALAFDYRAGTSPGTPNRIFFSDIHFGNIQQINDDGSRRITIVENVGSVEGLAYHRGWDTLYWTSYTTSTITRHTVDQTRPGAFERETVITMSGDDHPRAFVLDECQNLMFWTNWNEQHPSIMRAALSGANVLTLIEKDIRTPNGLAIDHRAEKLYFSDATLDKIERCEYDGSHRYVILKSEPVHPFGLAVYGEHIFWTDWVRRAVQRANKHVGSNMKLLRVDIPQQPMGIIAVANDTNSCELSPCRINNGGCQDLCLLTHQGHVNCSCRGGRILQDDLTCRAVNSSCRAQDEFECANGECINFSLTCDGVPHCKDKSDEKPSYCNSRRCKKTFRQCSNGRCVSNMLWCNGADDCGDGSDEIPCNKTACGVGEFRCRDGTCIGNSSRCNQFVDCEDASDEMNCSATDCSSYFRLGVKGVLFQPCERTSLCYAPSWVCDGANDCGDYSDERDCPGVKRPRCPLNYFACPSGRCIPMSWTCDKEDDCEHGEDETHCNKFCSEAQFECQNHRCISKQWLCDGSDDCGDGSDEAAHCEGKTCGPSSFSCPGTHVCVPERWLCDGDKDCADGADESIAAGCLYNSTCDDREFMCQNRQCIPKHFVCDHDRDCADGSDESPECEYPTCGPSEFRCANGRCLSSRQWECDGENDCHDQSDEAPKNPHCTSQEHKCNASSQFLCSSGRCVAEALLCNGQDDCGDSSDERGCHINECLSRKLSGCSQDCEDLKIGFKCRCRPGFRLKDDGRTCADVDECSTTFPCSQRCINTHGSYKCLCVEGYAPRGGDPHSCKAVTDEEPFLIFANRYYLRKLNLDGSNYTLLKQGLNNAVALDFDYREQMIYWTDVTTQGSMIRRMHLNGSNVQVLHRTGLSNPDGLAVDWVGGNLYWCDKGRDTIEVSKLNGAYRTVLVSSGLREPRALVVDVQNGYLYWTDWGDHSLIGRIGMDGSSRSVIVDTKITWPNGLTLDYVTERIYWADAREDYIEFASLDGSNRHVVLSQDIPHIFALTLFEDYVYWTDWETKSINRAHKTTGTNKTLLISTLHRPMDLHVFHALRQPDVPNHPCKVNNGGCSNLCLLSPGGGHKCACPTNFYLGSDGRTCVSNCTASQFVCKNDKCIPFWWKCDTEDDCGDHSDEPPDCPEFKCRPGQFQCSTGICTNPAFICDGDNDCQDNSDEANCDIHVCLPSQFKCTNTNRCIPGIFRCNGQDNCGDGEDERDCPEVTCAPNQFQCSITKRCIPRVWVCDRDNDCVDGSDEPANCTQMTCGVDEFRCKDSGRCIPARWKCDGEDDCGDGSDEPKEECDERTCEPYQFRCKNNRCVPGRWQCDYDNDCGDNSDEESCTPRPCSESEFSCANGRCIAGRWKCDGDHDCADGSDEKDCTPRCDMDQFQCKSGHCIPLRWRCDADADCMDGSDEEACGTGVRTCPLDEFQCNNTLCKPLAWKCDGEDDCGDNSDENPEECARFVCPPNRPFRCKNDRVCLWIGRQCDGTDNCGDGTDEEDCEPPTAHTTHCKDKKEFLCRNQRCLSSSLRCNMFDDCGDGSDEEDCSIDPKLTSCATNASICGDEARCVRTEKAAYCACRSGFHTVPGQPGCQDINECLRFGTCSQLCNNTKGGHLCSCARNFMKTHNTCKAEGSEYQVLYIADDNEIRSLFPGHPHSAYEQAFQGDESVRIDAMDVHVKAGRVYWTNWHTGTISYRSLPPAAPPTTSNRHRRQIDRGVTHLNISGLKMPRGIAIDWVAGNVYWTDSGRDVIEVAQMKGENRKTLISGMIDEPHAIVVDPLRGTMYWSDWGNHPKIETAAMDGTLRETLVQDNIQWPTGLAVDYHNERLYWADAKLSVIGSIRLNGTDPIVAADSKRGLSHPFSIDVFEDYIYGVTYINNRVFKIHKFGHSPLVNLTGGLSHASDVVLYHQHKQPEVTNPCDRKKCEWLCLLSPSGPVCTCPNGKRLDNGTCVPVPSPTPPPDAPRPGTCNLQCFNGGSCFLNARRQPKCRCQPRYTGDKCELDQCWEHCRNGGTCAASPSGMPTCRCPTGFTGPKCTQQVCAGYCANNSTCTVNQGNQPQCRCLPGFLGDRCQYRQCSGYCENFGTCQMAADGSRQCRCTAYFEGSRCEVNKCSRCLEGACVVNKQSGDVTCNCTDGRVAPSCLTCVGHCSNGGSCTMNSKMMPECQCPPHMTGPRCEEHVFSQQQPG

Kd [1]: 28 ± 6 nM
Ki [2]: 1.36 ± 0.02 nM
B1: C-terminally FLAG-tagged human TIMP-3 (tissue inhibitor of metalloproteinases 3) (natural protein, UniProt P35625 24-211, looked up)
chain: CTCSPSHPQDAFCNSDIVIRAKVVGKKLVKEGPFGTLVYTIKQMKMYRGFTKMPHVQYIHTEASESLCGLKLEVNKYQYLLTGRVYDGKMYTGLCNFVERWDQLTLSQRKGLNYRYHLGCNCKIKSCYYLPCFVTSKNECLWTDMLSNFGYPGYQSKHYACIRQKGGYCSWYRGWAPPDKSIINATDP
